Assay results taken from US20260176319A1 (KALLYOPE, published 2026).
Starred links: 1 amine or outer side, 2 acyl side, 3 side chain; linkers in the order of their positions; H or OH if unused. Non-standard residues stand in square brackets, D forms with d. *: point of attachment. Trp(7-Me) = Cc1cccc2c(C[C@H](N)C(=O)O)c[nH]c12; C20 diacid = O=C(O)CCCCCCCCCCCCCCCCCCC(=O)*; d(γGlu) = O=C(O)[C@@H](CCC(=O)[*:2])N[*:1]; C18 diacid = O=C(O)CCCCCCCCCCCCCCCCC(=O)*; γGlu = O=C(O)[C@H](CCC(=O)[*:2])N[*:1]; Palmitoyl = CCCCCCCCCCCCCCCC(=O)*; 2CE‑PEG‑TMEA = not defined here; 3Pal = N[C@@H](Cc1cccnc1)C(=O)O; 5CTMPA = not defined here; Nle = CCCC[C@H](N)C(=O)O; Dap = NC[C@H](N)C(=O)O; AEEA = NCCOCCOCC(=O)O; βAla = NCCC(=O)O; Sar = CNCC(=O)O

Molecular target: human GRP receptor (human, UniProt P30550 1-384)
Sequence (P30550 whole entry): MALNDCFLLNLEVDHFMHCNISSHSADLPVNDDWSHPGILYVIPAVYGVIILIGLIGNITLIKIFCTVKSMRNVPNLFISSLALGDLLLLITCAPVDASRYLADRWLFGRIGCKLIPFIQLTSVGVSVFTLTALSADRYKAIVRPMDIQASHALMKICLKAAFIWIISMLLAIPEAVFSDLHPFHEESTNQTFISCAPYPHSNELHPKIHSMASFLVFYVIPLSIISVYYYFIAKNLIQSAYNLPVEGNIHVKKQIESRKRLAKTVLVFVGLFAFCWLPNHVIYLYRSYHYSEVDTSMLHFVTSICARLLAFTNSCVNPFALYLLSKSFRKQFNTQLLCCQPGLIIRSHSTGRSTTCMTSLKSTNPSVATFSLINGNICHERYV
Assay: cell-based or functional assay

Binder | hIP1 GRPR EC50 [nM]
{C18 diacid}-[γGlu][γGlu][AEEA][AEEA]GRHWAV[βAla]HL[Nle]-NH2 (SMILES CCCC[C@H](NC(=O)[C@H](CC(C)C)NC(=O)[C@H](Cc1c[nH]cn1)NC(=O)CCNC(=O)[C@@H](NC(=O)[C@H](C)NC(=O)[C@H](Cc1c[nH]c2ccccc12)NC(=O)[C@H](Cc1c[nH]cn1)NC(=O)[C@H](CCCNC(=N)N)NC(=O)CNC(=O)COCCOCCNC(=O)COCCOCCNC(=O)CC[C@H](NC(=O)CC[C@H](NC(=O)CCCCCCCCCCCCCCCCC(=O)O)C(=O)O)C(=O)O)C(C)C)C(N)=O) [Peptide 243] | 3.6
Palmitoyl-[d(γGlu)][AEEA][AEEA]GNHWAV[dA]HL[Nle][Sar]-NH2 (SMILES CCCCCCCCCCCCCCCC(=O)N[C@H](CCC(=O)NCCOCCOCC(=O)NCCOCCOCC(=O)NCC(=O)N[C@@H](CC(N)=O)C(=O)N[C@@H](Cc1c[nH]cn1)C(=O)N[C@@H](Cc1c[nH]c2ccccc12)C(=O)N[C@@H](C)C(=O)N[C@H](C(=O)N[C@H](C)C(=O)N[C@@H](Cc1c[nH]cn1)C(=O)N[C@@H](CC(C)C)C(=O)N[C@@H](CCCC)C(=O)N(C)CC(N)=O)C(C)C)C(=O)O) [Peptide 15] | 1.4
{C20 diacid}-[γGlu][γGlu][AEEA][AEEA]E[dS]EH[Trp(7-Me)]AV[βAla]HL[Nle]-NH2 (SMILES CCCC[C@H](NC(=O)[C@H](CC(C)C)NC(=O)[C@H](Cc1c[nH]cn1)NC(=O)CCNC(=O)[C@@H](NC(=O)[C@H](C)NC(=O)[C@H](Cc1c[nH]c2c(C)cccc12)NC(=O)[C@H](Cc1c[nH]cn1)NC(=O)[C@H](CCC(=O)O)NC(=O)[C@@H](CO)NC(=O)[C@H](CCC(=O)O)NC(=O)COCCOCCNC(=O)COCCOCCNC(=O)CC[C@H](NC(=O)CC[C@H](NC(=O)CCCCCCCCCCCCCCCCCCC(=O)O)C(=O)O)C(=O)O)C(C)C)C(N)=O) [Peptide 248] | 10.5
{C20 diacid}-[γGlu][γGlu][AEEA][AEEA]GEH[Trp(7-Me)]AV[BABA]HL[Nle]-NH2 [Peptide 247] | 1.8
{C20 diacid}-[γGlu][γGlu][AEEA][AEEA]RGRH[Trp(7-Me)]AV[βAla]HL[Nle]-NH2 (SMILES CCCC[C@H](NC(=O)[C@H](CC(C)C)NC(=O)[C@H](Cc1c[nH]cn1)NC(=O)CCNC(=O)[C@@H](NC(=O)[C@H](C)NC(=O)[C@H](Cc1c[nH]c2c(C)cccc12)NC(=O)[C@H](Cc1c[nH]cn1)NC(=O)[C@H](CCCNC(=N)N)NC(=O)CNC(=O)[C@H](CCCNC(=N)N)NC(=O)COCCOCCNC(=O)COCCOCCNC(=O)CC[C@H](NC(=O)CC[C@H](NC(=O)CCCCCCCCCCCCCCCCCCC(=O)O)C(=O)O)C(=O)O)C(C)C)C(N)=O) [Peptide 254] | 3.7
{C20 diacid}-[γGlu]E[AEEA][AEEA]SGEH[Trp(7-Me)]AV[βAla]HL[Nle]-NH2 (SMILES CCCC[C@H](NC(=O)[C@H](CC(C)C)NC(=O)[C@H](Cc1c[nH]cn1)NC(=O)CCNC(=O)[C@@H](NC(=O)[C@H](C)NC(=O)[C@H](Cc1c[nH]c2c(C)cccc12)NC(=O)[C@H](Cc1c[nH]cn1)NC(=O)[C@H](CCC(=O)O)NC(=O)CNC(=O)[C@H](CO)NC(=O)COCCOCCNC(=O)COCCOCCNC(=O)[C@H](CCC(=O)O)NC(=O)CC[C@H](NC(=O)CCCCCCCCCCCCCCCCCCC(=O)O)C(=O)O)C(C)C)C(N)=O) [Peptide 255] | 6.9
{C20 diacid}-[γGlu][γGlu][AEEA][AEEA]RRH[Trp(7-Me)]AV[βAla]HL[Nle]-NH2 (SMILES CCCC[C@H](NC(=O)[C@H](CC(C)C)NC(=O)[C@H](Cc1c[nH]cn1)NC(=O)CCNC(=O)[C@@H](NC(=O)[C@H](C)NC(=O)[C@H](Cc1c[nH]c2c(C)cccc12)NC(=O)[C@H](Cc1c[nH]cn1)NC(=O)[C@H](CCCNC(=N)N)NC(=O)[C@H](CCCNC(=N)N)NC(=O)COCCOCCNC(=O)COCCOCCNC(=O)CC[C@H](NC(=O)CC[C@H](NC(=O)CCCCCCCCCCCCCCCCCCC(=O)O)C(=O)O)C(=O)O)C(C)C)C(N)=O) [Peptide 253] | 3.7
{C20 diacid}-[γGlu][γGlu][AEEA][AEEA][dF]N[3Pal]WAV[βAla]HL[Nle]-NH2 (SMILES CCCC[C@H](NC(=O)[C@H](CC(C)C)NC(=O)[C@H](Cc1c[nH]cn1)NC(=O)CCNC(=O)[C@@H](NC(=O)[C@H](C)NC(=O)[C@H](Cc1c[nH]c2ccccc12)NC(=O)[C@H](Cc1cccnc1)NC(=O)[C@H](CC(N)=O)NC(=O)[C@@H](Cc1ccccc1)NC(=O)COCCOCCNC(=O)COCCOCCNC(=O)CC[C@H](NC(=O)CC[C@H](NC(=O)CCCCCCCCCCCCCCCCCCC(=O)O)C(=O)O)C(=O)O)C(C)C)C(N)=O) [Peptide 245] | 11.9
{C20 diacid}-[γGlu][γGlu][AEEA][AEEA]GRHWAV[dA]HL[Nle]-NH2 (SMILES CCCC[C@H](NC(=O)[C@H](CC(C)C)NC(=O)[C@H](Cc1c[nH]cn1)NC(=O)[C@@H](C)NC(=O)[C@@H](NC(=O)[C@H](C)NC(=O)[C@H](Cc1c[nH]c2ccccc12)NC(=O)[C@H](Cc1c[nH]cn1)NC(=O)[C@H](CCCNC(=N)N)NC(=O)CNC(=O)COCCOCCNC(=O)COCCOCCNC(=O)CC[C@H](NC(=O)CC[C@H](NC(=O)CCCCCCCCCCCCCCCCCCC(=O)O)C(=O)O)C(=O)O)C(C)C)C(N)=O) [Peptide 244] | 2.8
{C20 diacid}-[γGlu][γGlu][AEEA][AEEA]EGRH[Trp(7-Me)]AV[βAla]HL[Nle]-NH2 (SMILES CCCC[C@H](NC(=O)[C@H](CC(C)C)NC(=O)[C@H](Cc1c[nH]cn1)NC(=O)CCNC(=O)[C@@H](NC(=O)[C@H](C)NC(=O)[C@H](Cc1c[nH]c2c(C)cccc12)NC(=O)[C@H](Cc1c[nH]cn1)NC(=O)[C@H](CCCNC(=N)N)NC(=O)CNC(=O)[C@H](CCC(=O)O)NC(=O)COCCOCCNC(=O)COCCOCCNC(=O)CC[C@H](NC(=O)CC[C@H](NC(=O)CCCCCCCCCCCCCCCCCCC(=O)O)C(=O)O)C(=O)O)C(C)C)C(N)=O) [Peptide 252] | 7.5
{C20 diacid}-[γGlu][γGlu][AEEA][AEEA]GQHWAV[βAla]HL[Nle]-NH2 (SMILES CCCC[C@H](NC(=O)[C@H](CC(C)C)NC(=O)[C@H](Cc1c[nH]cn1)NC(=O)CCNC(=O)[C@@H](NC(=O)[C@H](C)NC(=O)[C@H](Cc1c[nH]c2ccccc12)NC(=O)[C@H](Cc1c[nH]cn1)NC(=O)[C@H](CCC(N)=O)NC(=O)CNC(=O)COCCOCCNC(=O)COCCOCCNC(=O)CC[C@H](NC(=O)CC[C@H](NC(=O)CCCCCCCCCCCCCCCCCCC(=O)O)C(=O)O)C(=O)O)C(C)C)C(N)=O) [Peptide 251] | 4.4

Further lines, results first:

hIP1 GRPR EC50 [nM] | Binder
8.6 | {C20 diacid}-[γGlu][AEEA][AEEA]GNH[Trp(7-Me)]AV[3A3MBA]HL[Nle]-NH2 [Peptide 264]
7.7 | {C20 diacid}-[γGlu][AEEA][AEEA]GQHWAV[βAla]HL[Hse(Me)]-NH2 [Peptide 265]
4 | {C20 diacid}-[γGlu][AEEA][AEEA]G[Dap](2CE‑PEG‑TMEA)HWAV[βAla]HL[Nle]-NH2 (reading uncertain) [Peptide 262]
8.2 | {C20 diacid}-[γGlu][γGlu][AEEA][AEEA]GQH[Trp(7-Me)]AV[BABA]HL[Nle]-NH2 [Peptide 259]
2.7 | {C20 diacid}-[γGlu][AEEA][AEEA]GQH[Trp(7-Me)]AV[BAIBA]HL[Nle]-NH2 [Peptide 263]
4 | {C20 diacid}-[γGlu][AEEA][AEEA]G[Dap](5CTMPA)HWAV[βAla]HL[Nle]-NH2 (reading uncertain) [Peptide 261]
12.5 | {C20 diacid}-[γGlu][γGlu][AEEA][AEEA]ESQH[Trp(7-Me)]AV[βAla]HL[Nle]-NH2 (SMILES CCCC[C@H](NC(=O)[C@H](CC(C)C)NC(=O)[C@H](Cc1c[nH]cn1)NC(=O)CCNC(=O)[C@@H](NC(=O)[C@H](C)NC(=O)[C@H](Cc1c[nH]c2c(C)cccc12)NC(=O)[C@H](Cc1c[nH]cn1)NC(=O)[C@H](CCC(N)=O)NC(=O)[C@H](CO)NC(=O)[C@H](CCC(=O)O)NC(=O)COCCOCCNC(=O)COCCOCCNC(=O)CC[C@H](NC(=O)CC[C@H](NC(=O)CCCCCCCCCCCCCCCCCCC(=O)O)C(=O)O)C(=O)O)C(C)C)C(N)=O) [Peptide 257]
6 | {C20 diacid}-[γGlu][γGlu][AEEA][AEEA]GNH[Trp(7-Me)]AV[BABA]HL[Nle]-NH2 [Peptide 258]
3.7 | {C20 diacid}-[γGlu]E[AEEA][AEEA]SGRH[Trp(7-Me)]AV[βAla]HL[Nle]-NH2 (SMILES CCCC[C@H](NC(=O)[C@H](CC(C)C)NC(=O)[C@H](Cc1c[nH]cn1)NC(=O)CCNC(=O)[C@@H](NC(=O)[C@H](C)NC(=O)[C@H](Cc1c[nH]c2c(C)cccc12)NC(=O)[C@H](Cc1c[nH]cn1)NC(=O)[C@H](CCCNC(=N)N)NC(=O)CNC(=O)[C@H](CO)NC(=O)COCCOCCNC(=O)COCCOCCNC(=O)[C@H](CCC(=O)O)NC(=O)CC[C@H](NC(=O)CCCCCCCCCCCCCCCCCCC(=O)O)C(=O)O)C(C)C)C(N)=O) [Peptide 256]
